Drawing on paper PMC2711571 (The Journal of Cell Biology, 2009), this text covers Kd, stoichiometry N and IC50 for two molecules.

A word on the Kd: it is the free concentration of one partner at which half of the binding sites on the other are occupied at equilibrium, for simple one-to-one binding. The low end stands for tighter binding, the high end for weaker binding. As a reminder, the stoichiometry N is a count of units in the complex or per binding partner. In general, IC50 refers to the concentration needed to halve the response being measured. Low values mean higher potency, high ones lower potency.

Test [1] addresses Human Met-Fc chimera (human) (UniProt P08581). In words: ELISA. Background: ELISA stands for enzyme-linked immunosorbent assay.
Test [2] deals with Rat tail collagen type I, neutralized fibrillar (rat) (UniProt P02454). In words: ELISA.
The target of test [3] is Met receptor (human (endogenous in HeLa)) (UniProt P08581). In words: cross-linking + co-IP.
The target of test [4] is T1, Human Met-Fc chimera (human, UniProt P08581 25-932, fully glycosylated). The test can be described thus: ELISA.
Test [5] concerns the target T1, Human Met-Fc chimera. The test can be described thus: ELISA. This is another data set of the same source.

Where “and” joins values, the source holds several entries; their conditions need not be identical. Equal values may be shown once.

T1 sequence (P08581 25-932, change not shown): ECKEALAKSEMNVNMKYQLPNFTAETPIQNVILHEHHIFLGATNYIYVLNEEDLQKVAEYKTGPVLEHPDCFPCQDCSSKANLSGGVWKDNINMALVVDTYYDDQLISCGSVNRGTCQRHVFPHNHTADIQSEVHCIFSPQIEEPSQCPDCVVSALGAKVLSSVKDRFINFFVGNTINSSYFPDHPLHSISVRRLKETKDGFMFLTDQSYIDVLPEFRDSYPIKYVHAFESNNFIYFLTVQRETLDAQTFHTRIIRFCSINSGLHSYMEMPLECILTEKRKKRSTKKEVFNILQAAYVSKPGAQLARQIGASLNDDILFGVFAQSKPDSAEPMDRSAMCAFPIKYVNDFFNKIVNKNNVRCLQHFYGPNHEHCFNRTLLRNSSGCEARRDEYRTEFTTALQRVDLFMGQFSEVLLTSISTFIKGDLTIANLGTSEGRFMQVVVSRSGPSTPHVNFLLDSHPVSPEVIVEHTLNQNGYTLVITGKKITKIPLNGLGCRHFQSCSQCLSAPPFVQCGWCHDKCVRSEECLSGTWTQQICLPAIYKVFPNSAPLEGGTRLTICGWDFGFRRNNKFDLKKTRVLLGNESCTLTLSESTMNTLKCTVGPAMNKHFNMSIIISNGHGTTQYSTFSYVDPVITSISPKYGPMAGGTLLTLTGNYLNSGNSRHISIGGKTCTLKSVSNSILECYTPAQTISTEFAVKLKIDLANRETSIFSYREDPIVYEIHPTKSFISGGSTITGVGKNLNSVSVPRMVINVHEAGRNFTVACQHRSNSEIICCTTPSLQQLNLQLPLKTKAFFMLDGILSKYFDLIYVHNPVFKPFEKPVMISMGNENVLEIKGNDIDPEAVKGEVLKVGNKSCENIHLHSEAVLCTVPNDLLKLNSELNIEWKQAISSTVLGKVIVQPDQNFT
Sequence of Met receptor (human (endogenous in HeLa)) (P08581 25-1390): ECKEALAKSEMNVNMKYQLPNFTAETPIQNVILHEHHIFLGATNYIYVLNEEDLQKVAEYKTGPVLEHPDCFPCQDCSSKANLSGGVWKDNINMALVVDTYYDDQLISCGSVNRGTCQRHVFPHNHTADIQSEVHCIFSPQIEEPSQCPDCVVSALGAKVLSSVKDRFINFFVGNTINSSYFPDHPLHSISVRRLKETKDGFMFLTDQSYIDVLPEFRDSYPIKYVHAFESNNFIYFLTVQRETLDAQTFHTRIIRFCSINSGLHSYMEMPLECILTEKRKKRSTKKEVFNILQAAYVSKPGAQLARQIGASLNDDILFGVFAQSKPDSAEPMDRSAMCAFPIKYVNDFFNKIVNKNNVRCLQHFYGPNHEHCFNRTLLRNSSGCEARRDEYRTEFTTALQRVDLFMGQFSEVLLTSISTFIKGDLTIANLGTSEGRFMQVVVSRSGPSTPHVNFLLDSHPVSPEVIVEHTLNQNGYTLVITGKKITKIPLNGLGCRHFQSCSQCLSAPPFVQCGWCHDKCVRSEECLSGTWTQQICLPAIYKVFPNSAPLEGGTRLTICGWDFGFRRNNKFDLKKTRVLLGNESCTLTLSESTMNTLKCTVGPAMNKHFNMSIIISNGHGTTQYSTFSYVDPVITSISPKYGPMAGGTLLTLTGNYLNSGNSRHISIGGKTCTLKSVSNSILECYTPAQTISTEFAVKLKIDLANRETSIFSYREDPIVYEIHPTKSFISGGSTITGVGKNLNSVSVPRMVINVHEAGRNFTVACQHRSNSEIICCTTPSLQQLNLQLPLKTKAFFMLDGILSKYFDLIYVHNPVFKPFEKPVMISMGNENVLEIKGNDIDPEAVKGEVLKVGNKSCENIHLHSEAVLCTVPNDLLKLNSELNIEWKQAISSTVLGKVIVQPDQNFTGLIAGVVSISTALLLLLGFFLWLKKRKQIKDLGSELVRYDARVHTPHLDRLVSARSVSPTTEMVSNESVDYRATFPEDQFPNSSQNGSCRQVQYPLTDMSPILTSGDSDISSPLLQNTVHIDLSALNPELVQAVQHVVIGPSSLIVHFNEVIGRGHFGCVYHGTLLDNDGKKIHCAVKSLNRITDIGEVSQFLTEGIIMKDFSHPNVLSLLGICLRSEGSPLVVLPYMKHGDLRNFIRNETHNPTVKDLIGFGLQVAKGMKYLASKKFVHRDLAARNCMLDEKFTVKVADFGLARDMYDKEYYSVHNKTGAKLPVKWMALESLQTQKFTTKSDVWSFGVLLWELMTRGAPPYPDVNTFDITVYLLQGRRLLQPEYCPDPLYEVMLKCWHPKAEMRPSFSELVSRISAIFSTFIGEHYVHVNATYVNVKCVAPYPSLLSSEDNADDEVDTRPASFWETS
Sequence of Rat tail collagen type I, neutralized fibrillar (rat) (P02454 152-1207, chain 1 of 2): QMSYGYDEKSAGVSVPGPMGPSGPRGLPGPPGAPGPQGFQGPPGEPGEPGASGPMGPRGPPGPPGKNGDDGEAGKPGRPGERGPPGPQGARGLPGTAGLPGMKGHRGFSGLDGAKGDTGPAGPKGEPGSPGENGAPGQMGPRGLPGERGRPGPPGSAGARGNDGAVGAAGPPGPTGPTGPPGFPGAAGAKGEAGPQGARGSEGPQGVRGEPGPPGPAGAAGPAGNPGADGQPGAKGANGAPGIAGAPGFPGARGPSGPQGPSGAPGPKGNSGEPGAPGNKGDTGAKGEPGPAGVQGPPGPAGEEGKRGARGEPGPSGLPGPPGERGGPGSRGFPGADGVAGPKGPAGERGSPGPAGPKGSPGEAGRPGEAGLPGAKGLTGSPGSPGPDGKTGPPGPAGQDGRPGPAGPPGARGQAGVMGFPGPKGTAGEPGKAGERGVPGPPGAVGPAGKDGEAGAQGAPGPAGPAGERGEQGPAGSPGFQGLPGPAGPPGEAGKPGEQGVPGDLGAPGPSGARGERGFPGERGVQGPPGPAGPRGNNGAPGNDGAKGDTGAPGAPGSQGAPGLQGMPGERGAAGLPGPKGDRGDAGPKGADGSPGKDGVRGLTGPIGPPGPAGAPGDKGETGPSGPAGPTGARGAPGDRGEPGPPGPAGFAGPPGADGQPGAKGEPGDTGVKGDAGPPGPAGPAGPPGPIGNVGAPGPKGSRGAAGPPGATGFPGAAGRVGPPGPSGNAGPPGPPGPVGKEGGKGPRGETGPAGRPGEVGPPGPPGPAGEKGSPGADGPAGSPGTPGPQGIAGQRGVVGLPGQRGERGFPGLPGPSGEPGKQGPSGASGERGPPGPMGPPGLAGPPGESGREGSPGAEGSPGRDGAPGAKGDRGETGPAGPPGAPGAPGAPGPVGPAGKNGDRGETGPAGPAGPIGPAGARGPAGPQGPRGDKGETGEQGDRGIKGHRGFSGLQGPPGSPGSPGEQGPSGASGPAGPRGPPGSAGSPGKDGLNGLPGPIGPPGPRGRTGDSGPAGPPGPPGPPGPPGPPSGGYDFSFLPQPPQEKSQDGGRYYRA
Sequence of Rat tail collagen type I, neutralized fibrillar (rat) (P02466 86-1125, chain 2 of 2, further chain): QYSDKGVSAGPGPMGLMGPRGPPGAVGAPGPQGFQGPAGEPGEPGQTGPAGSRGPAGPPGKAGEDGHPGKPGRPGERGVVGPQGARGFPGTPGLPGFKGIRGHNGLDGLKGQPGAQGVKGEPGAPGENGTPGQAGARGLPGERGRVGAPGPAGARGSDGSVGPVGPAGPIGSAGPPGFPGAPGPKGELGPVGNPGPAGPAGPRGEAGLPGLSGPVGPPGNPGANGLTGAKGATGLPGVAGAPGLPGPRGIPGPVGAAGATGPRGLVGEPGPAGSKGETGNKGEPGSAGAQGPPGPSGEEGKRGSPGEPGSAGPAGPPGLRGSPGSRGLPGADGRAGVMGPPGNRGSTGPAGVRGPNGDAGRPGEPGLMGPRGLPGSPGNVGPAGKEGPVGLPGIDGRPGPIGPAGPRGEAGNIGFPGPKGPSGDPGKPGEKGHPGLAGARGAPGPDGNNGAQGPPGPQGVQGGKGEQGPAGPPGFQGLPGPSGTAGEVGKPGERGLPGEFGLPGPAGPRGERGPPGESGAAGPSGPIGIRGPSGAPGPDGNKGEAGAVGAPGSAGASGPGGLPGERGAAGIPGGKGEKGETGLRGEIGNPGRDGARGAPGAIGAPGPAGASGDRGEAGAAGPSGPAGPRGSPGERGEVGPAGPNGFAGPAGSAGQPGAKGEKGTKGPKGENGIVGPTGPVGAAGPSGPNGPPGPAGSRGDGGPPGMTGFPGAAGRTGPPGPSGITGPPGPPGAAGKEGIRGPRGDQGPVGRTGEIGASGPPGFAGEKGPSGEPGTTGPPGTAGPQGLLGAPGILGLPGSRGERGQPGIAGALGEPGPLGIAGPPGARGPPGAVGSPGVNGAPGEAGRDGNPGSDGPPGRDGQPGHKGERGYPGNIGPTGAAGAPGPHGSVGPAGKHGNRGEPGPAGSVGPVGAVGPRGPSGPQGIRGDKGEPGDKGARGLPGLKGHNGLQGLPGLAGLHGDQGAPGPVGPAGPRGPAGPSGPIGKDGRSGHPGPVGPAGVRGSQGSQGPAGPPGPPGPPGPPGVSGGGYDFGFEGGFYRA
Sequence of Human Met-Fc chimera (human) (P08581 25-932, change not shown): as the sequence (P08581 25-932, change not shown) above

With “Decorin protein core (from UniProt P07585 31-359) (ligand)”, the values for the Kd in test [1] and in test [2] were 1.5 nM and 0.28 nM, respectively. In addition, the stoichiometry N in test [3] is 1.

B1: Internalin B (ligand)
chain: AKVQAETITVPTPIKQIFSDDAFAETIKDNLKKKSVTDAVTQNELNSIDQIIANNSDIKSVQGIQYLPNVTKLFLNGNKLTDIKPLANLKNLGWLFLDENKVKDLSSLKDLKKLKSLSLEHNGISDINGLVHLPQLESLYLGNNKITDITVLSRLTKLDTLSLEDNQISDIVPLAGLTKLQNLYLSKNHISDLRALAGLKNLDVLELFSQECLNKPINHQSNLVVPNTVKNTDGSLVTPEIISDDGDYEKPNVKWHLPEFTNEVSFIFYQPVTIGKAKARFHGRVTQPLKEVYTVSYDVDGTVIKTKVEAGTRITAPKPPTKQGYVFKGWYTEKNGGHEWNFNTDYMSGNDFTLYAVFKAETTEKAVNLTRYVKYIRGNAGIYKLPREDNSLKQGTLASHRCKALTVDREARNGGKLWYRLKNIGWTKAENLSLDRYDKMEYDKGVTAYARVRNASGNSVWTKPYNTAGAKHVNKLSVYQGKNMRILREAKTPITTWYQFSIGGKVIGWVDTRALNTFYKQSMEKPTRLTRYVSANKAGESYYKVPVADNPVKRGTLAKYKNQKLIVDCQATIEGQLWYRIRTSSTFIGWTKAANLRAQK
On to B1, for which the IC50 in test [4] is ~120 nM and ~180 nM. In test [5], this molecule came in with a Kd of 2.16 nM.
